This passage reports EC50 results from patent US20170137511A1 (CALYPSO BIOTECH, published 2017).

First the molecules themselves.
B1: huB-E29-3 (antibody, human IgG1, kappa, V domains shown)
VH: EVRLMASGGGLVQPGGSLRLSCAASEFTFSNYAMSWVRQAPGKGLEWVSTISRGGDYTYYPDSVKGRFTISRDNSKNTLYLQMNSLRAEDTAVYYCARRVSMITGGWAMDYWGQGTLVTVSS
VL: DVVMTQSPLSLPVTLGQPASISCRSSQSIVDITGNTYLEWYQQRPGQSPRLLIYKVFNRFSGVPDRFSGSGSGTDFTLKISRVEAEDVGVYYCFQDSFVPYTFGQGTKLEIKR
notes: Humanized B-E29 variant; human IgG1 (G1m3) / kappa (Km3), produced in CHO cells; also called huVH3/huVL1
B2: huB-E29-31 (antibody, human IgG1, kappa, V domains shown)
VH: EVRLMASGGGLVQPGGSLRLSCAASEFTFSNYAMSWVRQAPGKGLEWVATISRGGDYTYYPDSVKGRFTISRDNSKNTLYLQMNSLRAEDTAVYYCARRVSFITGGYAMDYWGQGTLVTVSS
VL: DVVMTQSPLSLPVTLGQPASISCRSSQSIVDITGNTYLEWFQQRPGQSPRRLIYKVFNRFSGVPDRFSGSGSGTDFTLKISRVEAEDVGVYYCFQESFVPYTFGQGTKLEIKR
notes: Humanized B-E29 variant; human IgG1 (G1m3) / kappa (Km3), produced in CHO cells; also called huVH20/huVL6
B3: huB-E29-12 (antibody, human IgG1, kappa, V domains shown)
VH: EVRLMASGGGLVQPGGSLRLSCAASEFTFSNYAMSWVRQAPGKGLEWVATISRGGDYTYYPDTVKGRFTISRDNSKNTLYLQMNSLRAEDTAVYYCARRVSMITGGAAMDYWGQGTLVTVSS
VL: DVVMTQSPLSLPVTLGQPASISCRSSQSIVDITGNTYLEWYQQRPGQSPRLLIYKVFNRFSGVPDRFSGSGSGTDFTLKISRVEAEDVGVYYCFQDSFVPYTFGQGTKLEIKR
notes: Humanized B-E29 variant; human IgG1 (G1m3) / kappa (Km3), produced in CHO cells; also called huVH10/huVL1
B4: huB-E29-34 (antibody, human IgG1, kappa, V domains shown)
VH: EVRLMASGGGLVQPGGSLRLSCAASEFTFSNYAMSWVRQAPGKGLEWVATISRGGDYTYYPESVKGRFTISRDNSKNTLYLQMNSLRAEDTAVYYCARRVSFITGGYAMDYWGQGTLVTVSS
VL: DVVMTQSPLSLPVTLGQPASISCRSSQSIVDITGNTYLEWFQQRPGQSPRRLIYKVFNRFSGVPDRFSGSGSGTDFTLKISRVEAEDVGVYYCFQESFVPYTFGQGTKLEIKR
notes: Humanized B-E29 variant; human IgG1 (G1m3) / kappa (Km3), produced in CHO cells; also called huVH21/huVL6
B5: huB-E29-11 (antibody, human IgG1, kappa, V domains shown)
VH: EVRLMASGGGLVQPGGSLRLSCAASEFTFSNYAMSWVRQAPGKGLEWVATISRGGDYTYYPDTVKGRFTISRDNSKNTLYLQMNSLRAEDTAVYYCARRVSMITGGFAMDYWGQGTLVTVSS
VL: DVVMTQSPLSLPVTLGQPASISCRSSQSIVDITGNTYLEWYQQRPGQSPRLLIYKVFNRFSGVPDRFSGSGSGTDFTLKISRVEAEDVGVYYCFQDSFVPYTFGQGTKLEIKR
notes: Humanized B-E29 variant; human IgG1 (G1m3) / kappa (Km3), produced in CHO cells; also called huVH9/huVL1
B6: huB-E29-16 (antibody, human IgG1, kappa, V domains shown)
VH: EVRLMASGGGLVQPGGSLRLSCAASEFTFSNYAMSWVRQAPGKGLEWVATISRGGDYTYYPESVKGRFTISRDNSKNTLYLQMNSLRAEDTAVYYCARRVSMITGGWAMDYWGQGTLVTVSS
VL: DVVMTQSPLSLPVTLGQPASISCRSSQSIVDITGNTYLEWYQQRPGQSPRLLIYKVFNRFSGVPDRFSGSGSGTDFTLKISRVEAEDVGVYYCFQDSFVPYTFGQGTKLEIKR
notes: Humanized B-E29 variant; human IgG1 (G1m3) / kappa (Km3), produced in CHO cells; also called huVH14/huVL1
B7: huB-E29-15 (antibody, human IgG1, kappa, V domains shown)
VH: EVRLMASGGGLVQPGGSLRLSCAASEFTFSNYAMSWVRQAPGKGLEWVATISRGGDYTYYPDSVKGRFTISRDNSKNTLYLQMNSLRAEDTAVYYCARRVSMITGGWAIDYWGQGTLVTVSS
VL: DVVMTQSPLSLPVTLGQPASISCRSSQSIVDITGNTYLEWYQQRPGQSPRLLIYKVFNRFSGVPDRFSGSGSGTDFTLKISRVEAEDVGVYYCFQDSFVPYTFGQGTKLEIKR
notes: Humanized B-E29 variant; human IgG1 (G1m3) / kappa (Km3), produced in CHO cells; also called huVH13/huVL1
B8: huB-E29-19 (antibody, human IgG1, kappa, V domains shown)
VH: EVRLMASGGGLVQPGGSLRLSCAASEFTFSNYAMSWVRQAPGKGLEWVATISRGGDYTYYPDSVKGRFTISRDNSKNTLYLQMNSLRAEDTAVYYCARRVSMITGGWAMDYWGQGTLVTVSS
VL: DVVMTQSPLSLPVTLGQPASISCRSSQSIVDITGNTYLEWYQQRPGQSPRLLIYKVFNRFSGVPDRFSGSGSGTDFTLKISRVEAEDVGVYYCFQDTFVPYTFGQGTKLEIKR
notes: Humanized B-E29 variant; human IgG1 (G1m3) / kappa (Km3), produced in CHO cells; also called huVH1/huVL5
B9: huB-E29-6 (antibody, human IgG1, kappa, V domains shown)
VH: EVRLMASGGGLVQPGGSLRLSCAASEFTFSNYAMSWVRQAPGKGLEWVATISRGGDYTYYPDSVKGRFTISRDNSKNTLYLQMNSLRAEDTAVYYCARRVSLITGGWAMDYWGQGTLVTVSS
VL: DVVMTQSPLSLPVTLGQPASISCRSSQSIVDITGNTYLEWYQQRPGQSPRLLIYKVFNRFSGVPDRFSGSGSGTDFTLKISRVEAEDVGVYYCFQDSFVPYTFGQGTKLEIKR
notes: Humanized B-E29 variant; human IgG1 (G1m3) / kappa (Km3), produced in CHO cells; also called huVH4/huVL1

In general, EC50 refers to the concentration at which the effect is half-maximal.

recombinant human IL-15 (Prospec cat no. CYT230), sequence (P40933 other isoform, or with tags, fused parts or gaps): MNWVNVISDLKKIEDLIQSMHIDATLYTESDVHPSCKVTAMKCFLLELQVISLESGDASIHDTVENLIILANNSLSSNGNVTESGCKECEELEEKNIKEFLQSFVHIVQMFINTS

This assay addresses recombinant human IL-15 (Prospec cat no. CYT230) (human, UniProt P40933 49-162). Description: ELISA, plate-bound human IL-15; printed as BC50 (half-maximal binding concentration). The procedure: Maxisorp plates were coated with recombinant human IL-15 (Prospec cat no. CYT230) or Rhesus macaque IL-15 (MyBiosource cat. no. MBS948894) at 100 ng/well in carbonate coating buffer for 2 hours at 37° C. Since published sequences of Rhesus macaque and Cynomolgus monkey IL-15 are identical, such recombinant IL-15 protein was referred to as Macaque Monkey IL-15. Tested human IL-15 recombinant protein has a sequence identical to that provided in SEQ ID NO: 1 but with an additional methionine at the N-terminal position as usually done for expressing recombinant proteins in E. Coli. Tested recombinant Macaque Monkey IL-15 was produced in yeast and has a sequence identical to that provided in SEQ ID NO: 4 but with an additional N-terminal His tag.
The plate was then blocked with 2% normal goat serum for 30 min at 37° C. and washed 6 times with PBS-Tween (0.05% Tween-20 in PBS, v/v). Test antibodies were added to the plate in triplicate at various dilutions in PBS-Tween and the plate was incubated with gentle rocking at room temperature for 2 hours. The plate was then washed 6 times with PBS-Tween and an appropriate dilution of goat anti-human IgG antibody (Millipore cat. no. AP309P) conjugated to horseradish peroxidase (HRP) was added to the plate and left rocking at room temperature for 1 hour. The plate was then washed 6 times with PBS-Tween and incubated with TMB substrate. The reaction was stopped by the addition of 1M H₂SO₄ and read at 450 nm. Dose response curves of absorbance versus concentration were plotted and analyzed to determine half-maximal binding concentrations (BC₅₀) using the Graphpad Prism software. BC₅₀ values expressed as molarity were extrapolated from concentration in ng/ml using a 150 kDa molecular weight value for all antibodies.
A general note: In an ELISA, binding on a coated surface is turned into a signal by an enzyme label.
As for B1, the EC50 was found to be 2.62 nM.
Consider B2, for which the EC50 was 3.51 nM.
The value for B3 was 0.593 nM; that for B4 was 3.89 nM.
The value for B5 was 0.98 nM; that for B6 was 2.01 nM.
In the case of B7, the EC50 turned out to be 2.53 nM.
In the case of B8 it was 2.21 nM.
Consider B9, for which the EC50 worked out at 1.84 nM.
